# Measurements reported in US20240226230A1 (MAYO FOUNDATION FOR MEDICAL EDUCATION AND RESEARCH, published 2024).
# Where no end group is shown, it is not given here.
# T1: endogenous Nup62 (human, UniProt P37198 2-522)
# T1 construct: Detected with anti-Nup62
# T1 sequence (looked up): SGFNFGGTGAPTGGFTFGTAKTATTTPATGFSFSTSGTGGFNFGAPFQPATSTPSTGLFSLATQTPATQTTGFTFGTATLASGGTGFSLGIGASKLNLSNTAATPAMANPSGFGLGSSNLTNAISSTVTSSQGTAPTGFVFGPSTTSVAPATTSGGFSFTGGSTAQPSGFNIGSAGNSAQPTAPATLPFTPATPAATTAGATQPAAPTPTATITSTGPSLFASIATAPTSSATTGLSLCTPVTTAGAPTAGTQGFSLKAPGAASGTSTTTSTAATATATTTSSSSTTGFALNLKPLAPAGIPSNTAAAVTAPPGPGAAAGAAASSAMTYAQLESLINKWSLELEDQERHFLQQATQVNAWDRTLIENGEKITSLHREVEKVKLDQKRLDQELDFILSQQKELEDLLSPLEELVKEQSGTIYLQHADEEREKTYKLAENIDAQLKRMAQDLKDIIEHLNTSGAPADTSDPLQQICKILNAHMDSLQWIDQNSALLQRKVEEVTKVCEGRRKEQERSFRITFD
# T2: endogenous Nup50 (human, UniProt Q9UKX7 1-468, limits assumed)
# T2 construct: Detected with anti-Nup50
# T2 sequence (looked up): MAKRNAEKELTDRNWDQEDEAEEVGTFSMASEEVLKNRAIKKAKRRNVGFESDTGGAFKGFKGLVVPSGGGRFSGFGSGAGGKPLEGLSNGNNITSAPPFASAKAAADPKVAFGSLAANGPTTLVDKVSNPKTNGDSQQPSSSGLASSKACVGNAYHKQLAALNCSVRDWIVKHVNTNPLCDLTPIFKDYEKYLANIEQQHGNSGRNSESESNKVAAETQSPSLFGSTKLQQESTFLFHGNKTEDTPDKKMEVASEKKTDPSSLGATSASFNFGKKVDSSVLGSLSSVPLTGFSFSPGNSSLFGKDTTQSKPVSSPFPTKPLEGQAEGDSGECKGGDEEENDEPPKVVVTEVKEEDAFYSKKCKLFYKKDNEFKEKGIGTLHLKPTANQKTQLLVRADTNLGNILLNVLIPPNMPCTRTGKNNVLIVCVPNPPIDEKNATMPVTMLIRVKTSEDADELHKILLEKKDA
# Columns and labels:
# Assay in all cases: co-IP of GFP-tagged KPNB1 truncations, western blot
# endogenous Nup62 = molecular target: T1, endogenous Nup62
# From the text: (§1) FIG. 21A) Schematic domain structure of KPNB1. KPNB1 is comprised of 19 HEAT repeats (H1-19). RanGTP and importin-α interact with H1-8 and H8-19, respectively. FG-Nups bind to two regions of KPNB1, H5-7 and H14-16. FIG. 21B) Lysates from HEK293T cells expressing GFP, GFP-KPNB1 full-length (FL), N-terminal fragments of KPNB1 (H1-9 . . . H1) or the C-terminal fragment of KPNB1 (H10-19) were subjected to immunoprecipitation with GFP-Trap magnetic beads. Whole cell lysates (input) and immunoprecipitates (IP) were subjected to western blot analysis using indicated antibodies. KPNB1 H1-8, the smallest fully active KPNB1 fragment in reducing TDP-43 aggregation, strongly interacts with FG-Nups and Ran, and weakly with importin-al in comparison with full-length KPNB1. FIG. 21C) (Top) Schematic domain structure of KPNB1 H1-8^mNIS harboring four missense mutations (1178A, F217A, Y255A, I263R) in the nucleoporin-interacting site (NIS). (Bottom) Lysates from HEK293T cells expressing GFP, GFP-KPNB1 H1-8^WT or H1-8^mNIS were subjected to immunoprecipitation with GFP-Trap magnetic beads. Whole cell lysates (input) and immunoprecipitates (IP) were subjected to western blot analysis using indicated antibodies. […] Hoechst staining was used to outline nuclei. Scale bar: 5 μm. […] Statistical analysis was performed using one-way ANOVA and Bonferroni's post hoc test (**p<0.01, ***p<0.001, n=4). FIG. 21F) IF of HEK293T cells co-expressing GFP-(GR)₁₀₀ with an empty plasmid (ctrl), FLAG-tagged KPNB1 H1-8^WT or H1-8^mNIS and stained for endogenous TDP-43. Unlike KPNB1 H1-8^mNIS, KPNB1 H1-8^WT prevents the sequestration of endogenous TDP-43 in cytoplasmic GR aggregates. Arrowheads point to cytoplasmic GR aggregates. Hoechst staining was used to outline nuclei. Scale bar: 5 μm.
# endogenous Nup50 = molecular target: T2, endogenous Nup50
# From the text: as §1
# endogenous Ran = endogenous Ran (human, UniProt P62826 2-216)
# From the text: as §1
# endogenous importin-α1 = endogenous importin-α1 (human, UniProt P52292 2-529)
# From the text: as §1
Binder,binding result (endogenous Nup62),binding result (endogenous Nup50),binding result (endogenous Ran),binding result (endogenous importin-α1)
"GFP-KPNB1 H1-9 (receptor, also called N-terminal half of KPNB1 (HEAT repeats 1-9); not shown: GFP/EGFP tag (pEGFP-C1, Clontech)) GGGSGGGSGGGSMELITILEKTVSPDRLELEAAQKFLERAAVENLPTFLVELSRVLANPGNSQVARVAAGLQIKNSLTSKDPDIKAQYQQRWLAIDANARREVKNYVLQTLGTETYRPSSASQCVAGIACAEIPVNQWPELIPQLVANVTNPNSTEHMKESTLEAIGYICQDIDPEQLQDKSNEILTAIIQGMRKEEPSNNVKLAATNALLNSLEFTKANFDKESERHFIMQVVCEATQCPDTRVRVAALQNLVKIMSLYYQYMETYMGPALFAITIEAMKSDIDEVALQGIEFWSNVCDEEMDLAIEASEAAEQGRPPEHTSKFYAKGALQYLVPILTQTLTKQDENDDDDDWNPCKAAGVCLMLLATCCEDDIVPHVLPFIKEHIKNPDWRYRDAAVMAFGCILEGP",binds,binds,binds,binds
"{GFP}-GGGSGGGSGGGSMELITILEKTVSPDRLELEAAQKFLERAAVEN (receptor, also: GFP tag fused N-terminally, not in chain, (GGGS)3 linker in chain, not shown: GFP/EGFP tag (pEGFP-C1, Clontech)) [GFP-KPNB1 H1]",no binding,no binding,no binding,no binding
"GFP-KPNB1 H1-8 (receptor, also called GFP-KPNB1 H1-8^WT; not shown: GFP/EGFP tag (pEGFP-C1, Clontech)) GGGSGGGSGGGSMELITILEKTVSPDRLELEAAQKFLERAAVENLPTFLVELSRVLANPGNSQVARVAAGLQIKNSLTSKDPDIKAQYQQRWLAIDANARREVKNYVLQTLGTETYRPSSASQCVAGIACAEIPVNQWPELIPQLVANVTNPNSTEHMKESTLEAIGYICQDIDPEQLQDKSNEILTAIIQGMRKEEPSNNVKLAATNALLNSLEFTKANFDKESERHFIMQVVCEATQCPDTRVRVAALQNLVKIMSLYYQYMETYMGPALFAITIEAMKSDIDEVALQGIEFWSNVCDEEMDLAIEASEAAEQGRPPEHTSKFYAKGALQYLVPILTQTLTKQDENDDDDDWNPCKAAGVCLMLLATCCED",binds,binds,binds,
"GFP-KPNB1 H1-7 (receptor, not shown: GFP/EGFP tag (pEGFP-C1, Clontech)) GGGSGGGSGGGSMELITILEKTVSPDRLELEAAQKFLERAAVENLPTFLVELSRVLANPGNSQVARVAAGLQIKNSLTSKDPDIKAQYQQRWLAIDANARREVKNYVLQTLGTETYRPSSASQCVAGIACAEIPVNQWPELIPQLVANVTNPNSTEHMKESTLEAIGYICQDIDPEQLQDKSNEILTAIIQGMRKEEPSNNVKLAATNALLNSLEFTKANFDKESERHFIMQVVCEATQCPDTRVRVAALQNLVKIMSLYYQYMETYMGPALFAITIEAMKSDIDEVALQGIEFWSNVCDEEMDLAIEASEAAEQGRPP",no binding,no binding,no binding,no binding

# Further lines, results first:
binding result (endogenous Nup62),binding result (endogenous Nup50),binding result (endogenous Ran),binding result (endogenous importin-α1),Binder
no binding,no binding,no binding,no binding,"GFP-KPNB1 H1-6 (receptor, not shown: GFP/EGFP tag (pEGFP-C1, Clontech)) GGGSGGGSGGGSMELITILEKTVSPDRLELEAAQKFLERAAVENLPTFLVELSRVLANPGNSQVARVAAGLQIKNSLTSKDPDIKAQYQQRWLAIDANARREVKNYVLQTLGTETYRPSSASQCVAGIACAEIPVNQWPELIPQLVANVTNPNSTEHMKESTLEAIGYICQDIDPEQLQDKSNEILTAIIQGMRKEEPSNNVKLAATNALLNSLEFTKANFDKESERHFIMQVVCEATQCPDTRVRVAALQNLVKIMSLYY"
no binding,no binding,no binding,no binding,"GFP-KPNB1 H1-3 (receptor, not shown: GFP/EGFP tag (pEGFP-C1, Clontech)) GGGSGGGSGGGSMELITILEKTVSPDRLELEAAQKFLERAAVENLPTFLVELSRVLANPGNSQVARVAAGLQIKNSLTSKDPDIKAQYQQRWLAIDANARREVKNYVLQTLGTETYRPSSASQCVAGIACAEIPVNQWP"
no binding,no binding,no binding,no binding,"GFP-KPNB1 H1-5 (receptor, not shown: GFP/EGFP tag (pEGFP-C1, Clontech)) GGGSGGGSGGGSMELITILEKTVSPDRLELEAAQKFLERAAVENLPTFLVELSRVLANPGNSQVARVAAGLQIKNSLTSKDPDIKAQYQQRWLAIDANARREVKNYVLQTLGTETYRPSSASQCVAGIACAEIPVNQWPELIPQLVANVTNPNSTEHMKESTLEAIGYICQDIDPEQLQDKSNEILTAIIQGMRKEEPSNNVKLAATNALLNSLEFTKANF"
no binding,no binding,no binding,no binding,"GFP-KPNB1 H1-4 (receptor, not shown: GFP/EGFP tag (pEGFP-C1, Clontech)) GGGSGGGSGGGSMELITILEKTVSPDRLELEAAQKFLERAAVENLPTFLVELSRVLANPGNSQVARVAAGLQIKNSLTSKDPDIKAQYQQRWLAIDANARREVKNYVLQTLGTETYRPSSASQCVAGIACAEIPVNQWPELIPQLVANVTNPNSTEHMKESTLEAIGYICQDIDPEQLQ"
no binding,no binding,no binding,no binding,"GFP-KPNB1 H1-2 (receptor, not shown: GFP/EGFP tag (pEGFP-C1, Clontech)) GGGSGGGSGGGSMELITILEKTVSPDRLELEAAQKFLERAAVENLPTFLVELSRVLANPGNSQVARVAAGLQIKNSLTSKDPD"
